From article PMC3680789

Target: T1, ScPif1 (Saccharomyces cerevisiae, UniProt P07271 40-859)
T1 sequence: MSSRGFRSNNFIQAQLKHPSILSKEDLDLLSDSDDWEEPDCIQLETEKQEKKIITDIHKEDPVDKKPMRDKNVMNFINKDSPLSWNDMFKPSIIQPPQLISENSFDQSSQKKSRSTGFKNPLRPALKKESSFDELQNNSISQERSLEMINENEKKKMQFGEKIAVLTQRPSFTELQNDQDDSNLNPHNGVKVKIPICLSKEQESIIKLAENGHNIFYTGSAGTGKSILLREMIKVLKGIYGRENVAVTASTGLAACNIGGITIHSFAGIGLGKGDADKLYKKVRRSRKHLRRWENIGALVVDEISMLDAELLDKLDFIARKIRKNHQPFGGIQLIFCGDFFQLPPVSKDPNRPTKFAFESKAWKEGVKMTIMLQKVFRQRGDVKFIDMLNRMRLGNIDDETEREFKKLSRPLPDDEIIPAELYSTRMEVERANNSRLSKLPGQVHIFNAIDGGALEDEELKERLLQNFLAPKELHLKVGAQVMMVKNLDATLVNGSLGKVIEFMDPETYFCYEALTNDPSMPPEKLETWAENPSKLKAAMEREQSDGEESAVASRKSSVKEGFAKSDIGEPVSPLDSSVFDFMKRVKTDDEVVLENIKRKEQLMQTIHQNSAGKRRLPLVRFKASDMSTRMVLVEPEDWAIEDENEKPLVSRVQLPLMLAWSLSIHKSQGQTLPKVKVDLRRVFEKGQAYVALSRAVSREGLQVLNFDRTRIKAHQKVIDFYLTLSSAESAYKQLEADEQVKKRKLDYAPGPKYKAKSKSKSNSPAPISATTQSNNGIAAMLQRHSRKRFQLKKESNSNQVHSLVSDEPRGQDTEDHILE
Assay: filter binding

Row | Binder | Kd [nM]
1 | CGGCCCGGCGGTCCGCGGTC (ssDNA) [G-rich 20-mer (GR)] | 0.04
2 | CAAAGGACCCTTTGTGGATC (ssDNA) [non-G-rich 20-mer (NG)] | 0.2
